The record followed here is patent publication US20200247855A1 (published 2020).

Positions count from the first letter of the chain named. Names and notes keep the numbering of the source. Where two headings read alike, the source gives them in different places.

Targets include CXCL6; CXCL4; CXCL10_HUMAN (human, UniProt P02778 22-98); CXCL8_HUMAN (human, UniProt P10145 28-99); CCL2_HUMAN (human, UniProt P13500 24-99); CCL11_HUMAN (human, UniProt P51671 24-97); CCL13_HUMAN (human, UniProt Q99616 24-98); CCL7_HUMAN (human, UniProt P80098 24-99).
Holding throughout (assay): BLI
Background: In BLI a coated tip is dipped into the sample, and binding shifts an interference pattern.

Experiment [1] has as its target CXCL5.
For experiment [2], the target named is CXCL2.
The next experiment has as its target T1, CXCL11_HUMAN (human, UniProt O14625 22-94).
T1 chain: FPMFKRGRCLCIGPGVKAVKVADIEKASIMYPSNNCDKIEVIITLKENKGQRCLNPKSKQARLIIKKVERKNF

For the next experiment, the target named is T2, CXCL7_HUMAN (human, UniProt P02775 59-128).
T2 chain: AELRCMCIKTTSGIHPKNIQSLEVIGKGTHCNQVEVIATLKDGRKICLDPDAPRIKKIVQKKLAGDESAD

Experiment [3] has as its target T3, CXCL1_HUMAN (human, UniProt P09341 35-107).
For experiment [4], the target named is T4, CXCL3_HUMAN (human, UniProt P19876 35-107).
In experiment [5] the target is T3, CXCL1_HUMAN. The source holds these as a separate data set.
For experiment [6], the target named is T4, CXCL3_HUMAN. The source holds these as a separate data set.
In a further experiment the target is T5, CCL18_HUMAN (human, UniProt P55774 21-89).
T5 chain: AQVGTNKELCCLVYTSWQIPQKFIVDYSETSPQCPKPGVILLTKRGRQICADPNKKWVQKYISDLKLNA

A further experiment deals with T6, CCL21_HUMAN (human, UniProt O00585 24-134).
T6 chain: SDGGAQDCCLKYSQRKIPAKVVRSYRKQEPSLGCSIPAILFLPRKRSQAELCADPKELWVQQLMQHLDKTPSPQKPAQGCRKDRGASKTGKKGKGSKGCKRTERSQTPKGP

In the next experiment the target is T7, CCL1_HUMAN (human, UniProt P22362 24-96).
T7 chain: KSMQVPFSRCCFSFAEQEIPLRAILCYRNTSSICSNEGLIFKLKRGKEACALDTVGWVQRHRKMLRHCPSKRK

The next experiment has as its target T8, CCL23_HUMAN (human, UniProt P55773 22-120).
T8 chain: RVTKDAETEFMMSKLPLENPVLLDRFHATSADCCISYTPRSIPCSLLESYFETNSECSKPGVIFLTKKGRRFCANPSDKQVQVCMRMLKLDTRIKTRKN

The target of a further experiment is T9, CCL16_HUMAN (human, UniProt O15467 24-120).
T9 chain: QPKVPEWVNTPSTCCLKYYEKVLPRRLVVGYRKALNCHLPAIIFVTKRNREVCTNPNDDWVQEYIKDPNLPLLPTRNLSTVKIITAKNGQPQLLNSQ

In the next experiment the target is T10, CCL3_HUMAN (human, UniProt P10147 24-92).
T10 chain: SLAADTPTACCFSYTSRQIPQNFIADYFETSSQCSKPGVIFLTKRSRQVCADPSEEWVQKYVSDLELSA

Another experiment addresses T11, CCL14_HUMAN (human, UniProt Q16627 22-93).
T11 chain: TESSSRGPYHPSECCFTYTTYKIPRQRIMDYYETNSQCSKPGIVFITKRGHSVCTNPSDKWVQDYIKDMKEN

In the next experiment the target is T12, CCL22_HUMAN (human, UniProt O00626 25-93).
T12 chain: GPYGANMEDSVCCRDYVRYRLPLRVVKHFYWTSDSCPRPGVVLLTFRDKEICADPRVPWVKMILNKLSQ

For the next experiment, the target named is T13, CCL24_HUMAN (human, UniProt O00175 27-104).
T13 chain: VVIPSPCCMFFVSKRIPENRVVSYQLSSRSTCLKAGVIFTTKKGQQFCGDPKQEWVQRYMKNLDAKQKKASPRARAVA

The next experiment addresses T14, CCL15_HUMAN (human, UniProt Q16663 22-113).
T14 chain: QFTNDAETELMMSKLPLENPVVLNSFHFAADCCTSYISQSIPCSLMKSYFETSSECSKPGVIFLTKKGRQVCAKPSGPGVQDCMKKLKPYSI

Another experiment addresses T15, CCL3L1_HUMAN (human, UniProt P16619 24-93).
T15 chain: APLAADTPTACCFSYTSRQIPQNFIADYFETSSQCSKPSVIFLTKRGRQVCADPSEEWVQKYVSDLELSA

A further experiment addresses T16, CCL27_HUMAN (human, UniProt Q9Y4X3 25-112).
T16 chain: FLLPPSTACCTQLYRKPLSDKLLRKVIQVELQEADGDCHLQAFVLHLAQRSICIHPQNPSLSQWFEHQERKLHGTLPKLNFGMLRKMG

Another experiment addresses T17, CCL17_HUMAN (human, UniProt Q92583 24-94).
T17 chain: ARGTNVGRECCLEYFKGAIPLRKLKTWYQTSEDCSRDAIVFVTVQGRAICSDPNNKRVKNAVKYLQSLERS

For another experiment, the target named is T18, CCL5_HUMAN (human, UniProt P13501 24-91).
T18 chain: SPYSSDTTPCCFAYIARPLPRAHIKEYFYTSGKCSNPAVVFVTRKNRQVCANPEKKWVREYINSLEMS

A further experiment concerns the target T19, CCL8_HUMAN (human, UniProt P80075 24-99).
T19 chain: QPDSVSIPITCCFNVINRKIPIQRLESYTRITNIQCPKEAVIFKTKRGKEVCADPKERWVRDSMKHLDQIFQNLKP

The target in the next experiment is T20, CCL4_HUMAN (human, UniProt P13236 24-92).
T20 chain: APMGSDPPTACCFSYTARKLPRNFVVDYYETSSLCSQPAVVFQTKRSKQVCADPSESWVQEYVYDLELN

The next experiment addresses T21, CCL4L1_HUMAN (human, UniProt Q8NHW4 24-92).
T21 chain: T20 chain with S47G

Experiment [7] addresses CXCL5. This is another data set of the same source.
Experiment [8] addresses CXCL2. The source holds these as a separate data set.

T4 sequence (P19876 35-107): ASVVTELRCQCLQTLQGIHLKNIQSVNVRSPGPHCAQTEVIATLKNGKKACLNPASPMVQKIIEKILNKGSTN
T3 sequence (P09341 35-107): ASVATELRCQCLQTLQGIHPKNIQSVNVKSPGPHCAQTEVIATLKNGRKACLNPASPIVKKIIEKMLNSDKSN
Chain of CXCL10_HUMAN (P02778 22-98): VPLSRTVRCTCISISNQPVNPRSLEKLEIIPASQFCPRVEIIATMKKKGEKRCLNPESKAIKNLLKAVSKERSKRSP
Chain of CXCL8_HUMAN (P10145 28-99): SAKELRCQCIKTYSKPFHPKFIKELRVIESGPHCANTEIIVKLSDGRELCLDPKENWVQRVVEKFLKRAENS
Chain of CCL13_HUMAN (Q99616 24-98): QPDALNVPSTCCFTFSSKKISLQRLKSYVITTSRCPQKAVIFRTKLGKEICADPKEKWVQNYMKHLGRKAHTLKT
Chain of CCL11_HUMAN (P51671 24-97): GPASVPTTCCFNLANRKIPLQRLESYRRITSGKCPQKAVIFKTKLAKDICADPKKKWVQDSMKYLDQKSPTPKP
Chain of CCL7_HUMAN (P80098 24-99): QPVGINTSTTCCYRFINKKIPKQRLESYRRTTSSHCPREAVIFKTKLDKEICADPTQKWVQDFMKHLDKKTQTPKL
Chain of CCL2_HUMAN (P13500 24-99): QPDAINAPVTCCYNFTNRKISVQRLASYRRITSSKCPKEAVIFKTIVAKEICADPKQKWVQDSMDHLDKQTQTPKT

B1: P1126_AMBCA (other)
chain: KPQILQRTDKSTDSEWDPQTCPETCIPSKNITCSDGCVCVKLGEEEEGTCFNMTGVDWLGSPSDD
The term Kd denotes the free concentration of one partner at which half of the binding sites on the other are occupied at equilibrium, for simple one-to-one binding. A high value points to weaker binding. In the case of B1, the Kd with CXCL5 [1] is 12.1 nM; in the experiment with CXCL2 [2], 5.11 nM; in the experiment with CXCL6, 9.12 nM; with CXCL4, 393 nM; in the experiment with CXCL10_HUMAN, 7.9 nM; in the experiment with CXCL11_HUMAN, 394 nM. The Kd with CXCL7_HUMAN is 6.05 nM; with CXCL1_HUMAN [3] it was 10.5 nM; with CXCL3_HUMAN [4], 13.3 nM.

B2: P1156:G4S:P991 (designed binder)
chain: ADDDNELFTVQYCGMNCTKDEGGTWTGCTGKKEGCKCYHESGKNYGLCLSTEYTDFSQYGNPSDSEIEAAKPKRSDTLSHGGGGSENGEGTTQPDYDNSTDYYNYEDFKCTCPAPHLNNTNGTVMKPIGCYYTCNVTRCTAPDTYPCYNLTEHQAKNLTTSPTTLCAVGNCDHGICVPNGTKELCFKAPNLEE
Take B2: the equilibrium dissociation constant (Kd) with CXCL8_HUMAN is 1.5 nM; with CXCL1_HUMAN [5] it was 2.72 nM; in the experiment with CXCL3_HUMAN [6] it was 61.4 nM; with CCL18_HUMAN, 0.201 nM; with CCL21_HUMAN, 19.9 nM; in the experiment with CCL1_HUMAN, 16.6 nM. The Kd was determined as 7 nM in the experiment with CCL23_HUMAN; 32.1 nM with CCL2_HUMAN; 1.54 nM in the experiment with CCL11_HUMAN; 0.503 nM in the experiment with CCL16_HUMAN; 1.89 nM with CCL3_HUMAN; 0.664 nM with CCL14_HUMAN. The dissociation constant Kd with CCL22_HUMAN was 2.18 nM; with CCL24_HUMAN, 3.58 nM; with CCL15_HUMAN, 166 nM; with CCL3L1_HUMAN, 3.09 nM; with CCL13_HUMAN it was 0.207 nM; in the experiment with CCL27_HUMAN, 36.2 nM. Besides, the equilibrium dissociation constant (Kd) with CCL17_HUMAN was 7.44 nM; in the experiment with CCL7_HUMAN, 0.435 nM; with CCL5_HUMAN, 0.754 nM; with CCL8_HUMAN it was 7.45 nM; with CCL4_HUMAN it was 3.55 nM; with CCL4L1_HUMAN, 1.28 nM. In addition, the dissociation constant Kd amounted to 22.7 nM with CXCL5 [7] and 25.2 nM in the experiment with CXCL2 [8].

B3: P991:G4S:P1156 (designed binder)
chain: ENGEGTTQPDYDNSTDYYNYEDFKCTCPAPHLNNTNGTVMKPIGCYYTCNVTRCTAPDTYPCYNLTEHQAKNLTTSPTTLCAVGNCDHGICVPNGTKELCFKAPNLEEGGGGSADDDNELFTVQYCGMNCTKDEGGTWTGCTGKKEGCKCYHESGKNYGLCLSTEYTDFSQYGNPSDSEIEAAKPKRSDTLSH
Take B3: the Kd with CXCL8_HUMAN was 3.56 nM; in the experiment with CXCL1_HUMAN [5], 5.08 nM; with CXCL3_HUMAN [6], 89.9 nM; in the experiment with CCL18_HUMAN, 0.143 nM; with CCL21_HUMAN it was 18.2 nM; with CCL1_HUMAN, 7.66 nM. The Kd with CCL23_HUMAN turned out to be 5.13 nM; in the experiment with CCL2_HUMAN it was 24.8 nM; in the experiment with CCL11_HUMAN it was 1.39 nM; with CCL16_HUMAN, 0.636 nM; with CCL3_HUMAN, 2.22 nM; in the experiment with CCL14_HUMAN, 0.835 nM. Moreover, the Kd in the experiment with CCL22_HUMAN is 2.36 nM; in the experiment with CCL24_HUMAN, 3.18 nM; with CCL15_HUMAN, 127 nM; with CCL3L1_HUMAN it was 2.91 nM; with CCL13_HUMAN, 0.176 nM; in the experiment with CCL27_HUMAN, 42.6 nM. Moreover, the Kd in the experiment with CCL17_HUMAN came to 5.8 nM; with CCL7_HUMAN, 0.287 nM; with CCL5_HUMAN, 0.947 nM; in the experiment with CCL8_HUMAN, 7.89 nM; with CCL4_HUMAN, 3.54 nM; with CCL4L1_HUMAN it was 1.24 nM. Moreover, the Kd with CXCL5 [7] was 52.7 nM; with CXCL2 [8], 48.9 nM.

B4: P1142_AMBCA (other)
chain: KPQILQRTDHSTDSDWDPQMCPETCNPSKNISCSSECLCVTLGGGDETGTCFNMSGVDWLGHAQASDGHNDG
For the molecule B4, the Kd was 9.81 nM with CXCL5 [1]; 2.14 nM in the experiment with CXCL2 [2]; 6.27 nM with CXCL6; 381 nM with CXCL4; 7.46 nM in the experiment with CXCL10_HUMAN; 322 nM with CXCL11_HUMAN. Further, the results for the Kd with CXCL7_HUMAN, with CXCL1_HUMAN [3] and with CXCL3_HUMAN [4] were 1.83 nM, 4.61 nM and 5.65 nM, respectively.
